From PMC7409020, “Tumor-Targeting Peptides: The Functional Screen of Glioblastoma Homing Peptides to the Target Protein FABP3 (MDGI)” (Cancers, 2020)
Square brackets hold non-standard residues; d marks the D form. Ends that are not written are not given here.

Molecular target: recombinant N-terminal His6-tagged human FABP3 (human)
Assay: MST; Monolith NT.115; 20 nM NT-650-NHS-labelled FABP3, unlabelled peptides 500 µM to 0.0153 µM in two-fold dilutions; 25 °C; PBS with 0.05% Tween 20, pH 7.4; 40% MST power, 60% LED power; 1:1 fit; triplicates

Chain of recombinant N-terminal His6-tagged human FABP3 (human) (P05413 2-133): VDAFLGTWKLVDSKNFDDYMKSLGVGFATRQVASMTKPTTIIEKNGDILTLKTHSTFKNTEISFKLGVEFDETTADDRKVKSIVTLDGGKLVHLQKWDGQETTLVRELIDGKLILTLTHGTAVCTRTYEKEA

Row | Kd [nM] | fold lower binding affinity compared to A-CooP [fold] | Binder
1 | 133000 | – | ACGLSGLAVA-NH2 [A-[Ala^7]CooP]
2 | 70 | – | ACGLSGLGVAK-NH2 [A-CooP-K]
3 | 2180 | – | ACGLSGLGVA-NH2 [A-CooP]
4 | 630 | – | KACGLSGLGVA-NH2 [KA-CooP]
5 | – | 10 | [dA][dV]G[dL]G[dS][dL]G[dC][dA]-NH2 (N-terminus assumed; SMILES CC(C)C[C@@H](NC(=O)CNC(=O)[C@H](NC(=O)[C@@H](C)N)C(C)C)C(=O)NCC(=O)N[C@H](CO)C(=O)N[C@H](CC(C)C)C(=O)NCC(=O)N[C@H](CS)C(=O)N[C@H](C)C(N)=O) [RI-A-CooP]
